Publication PMC4694764 (Molecular Biology of the Cell, 2016)

Target: GST-MICAL-L2-ACT (aa 261-1009) (mouse, UniProt Q3TN34 261-1009)
Assay: pull-down

GST-MICAL-L2-ACT (aa 261-1009), sequence (Q3TN34 261-1009): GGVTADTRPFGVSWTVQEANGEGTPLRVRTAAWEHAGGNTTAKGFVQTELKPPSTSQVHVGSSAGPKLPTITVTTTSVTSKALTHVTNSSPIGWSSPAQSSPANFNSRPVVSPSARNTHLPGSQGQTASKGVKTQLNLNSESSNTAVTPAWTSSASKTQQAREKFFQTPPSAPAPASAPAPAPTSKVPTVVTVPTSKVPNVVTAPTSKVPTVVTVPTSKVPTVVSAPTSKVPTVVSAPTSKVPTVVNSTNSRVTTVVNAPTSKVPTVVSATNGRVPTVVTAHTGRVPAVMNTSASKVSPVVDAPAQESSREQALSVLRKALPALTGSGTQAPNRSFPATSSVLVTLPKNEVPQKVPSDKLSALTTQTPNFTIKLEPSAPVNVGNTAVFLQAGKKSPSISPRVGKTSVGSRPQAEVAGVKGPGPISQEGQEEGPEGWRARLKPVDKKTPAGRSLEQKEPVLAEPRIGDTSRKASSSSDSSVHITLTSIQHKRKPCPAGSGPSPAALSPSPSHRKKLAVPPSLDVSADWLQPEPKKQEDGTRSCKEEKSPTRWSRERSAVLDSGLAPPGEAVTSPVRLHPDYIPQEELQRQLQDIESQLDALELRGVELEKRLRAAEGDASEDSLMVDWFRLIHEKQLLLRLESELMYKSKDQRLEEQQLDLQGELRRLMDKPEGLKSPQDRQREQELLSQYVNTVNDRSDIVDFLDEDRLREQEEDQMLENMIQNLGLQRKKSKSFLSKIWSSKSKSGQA

fold of pull-down, lysates of insulin-stimulated against basal cells: ~2 fold
B1: GFP-Rab13 (expressed in L6-GLUT4myc muscle cells) (natural protein, UniProt P51153 1-203, looked up)
chain: MAKAYDHLFKLLLIGDSGVGKTCLIIRFAEDNFNNTYISTIGIDFKIRTVDIEGKKIKLQVWDTAGQERFKTITTAYYRGAMGIILVYDITDEKSFENIQNWMKSIKENASAGVERLLLGNKCDMEAKRKVQKEQADKLAREHGIRFFETSAKSSMNVDEAFSSLARDILLKSGGRRSGNGNKPPSTDLKTCDKKNTNKCSLG
